Results published in the DeepSol protein solubility set.

Assay: soluble on expression in E. coli; label from the status in PepcDB or PDB records
With “MAHHHHHHMEQQVIAVHYQRMEEWLSDRKAVLGKKHKKEFFRLMELAPKLEQLVRYEIPAQHKQNKRLSGLLDDAYGSIEDAAKARKNLEERQKRFFQEYGLVESQGAEEEDLEAVIEAKIASSTTSLNEALREFGRSPHLESFREAYVRAAKMYSMGMYDDNVFSLHLPWLDRVYQERFYKSKVDIHHHEQHQKQRAGERDQVAVKASTGPCNIDWGDEDTVDLVDVGETVEIKWDEEALEVAVEGAVRNCSENNKRMDDGCEEKPTDTVKGIFTIDVSNAAHRKNILTELQAFACFASERSSMDDESLAEPAAAVEVLVKKLTASTEAVFVRMKTTPTLRFSFMEEVRRLQRGIAAASMRKSNSQARVHQIQEEIERLGPQLDALLIAAGNCRDECLAELLKMFPGRTVTIVGDINKYL” the “soluble on expression in E. coli” value was “not soluble”. With “MAHHHHHHMERYESIAERAGFARSQVLPRGSGGSSSASVCYENAANYLQHARGADYATASCSVPVDIWDALCQGEASVLRVGQLGEGRQRLIAYESCTTSSHSGDLSSRLASLEKSLDKLLSEFPKTAEELVTLDYNASLCSAAARSVLTAVPSFLSISGLLRTINNKLCSLDGFSREVLPLMRCDDDVSRQCLLVAGRLDTLEEKLRTTEALVAALGHTSAASNAIFERIGARYGETTRAATM” the “soluble on expression in E. coli” value was “not soluble”. With “MAHHHHHHMESKICDPIGLDKNKFRKVEEENEENSKIVENGQMTYNDDLEMFTTIQLNQEIDIRKNPFPLHMINQKNDIPLCAQEFSKLTDPLYIKKICLEKVHDWSRCNEDDVCVNQILSGLTNQLFEVSIKEDTAIEYRITRRHVLFRIYGKDVDALYNPLSEFEVYKTMSKYRIAPLLLNTFDGGRIEEWLYGDPLSIDDLKNKSILVGIANVLGKFHTLSRKRHLPEHWDKTPCVFKMMDRWRLAVSNYKNLDKVTLDINKYIQESHKFLKFIKIYTQIENIANDIVFCHNDLQENNIMNTNKCLRLIDFEYSGYNFLSADIANFFIETTIDYSYNAYPFFIINKKNYISYESRILFVTTYLSKYLDDSTAASDQDIIDQFLEAIEVQALGLHLIWAFWSIIRGYQTKSYNEFDFFLYAKERLKMYDEQKQYLMSKNIIKDYDD” the “soluble on expression in E. coli” value was “soluble”. In the case of “MAHHHHHHMFRSASCILLAAKTIPINPQKPFKLHTAGRDDVPPVPTTATYDTEQMKKCLEMMFRIRRMESLCDQSYKLKKIRGFCHLYIGQEAIPVGMENVLTLEDLIVTAYRDHAWYIVRGGTPGEVFAEMFGKEGGCSKGKGGSMHMYSVKNNFFGGNGIVGAQVPIGAGLGWRFALENRDKPRNVAVTFYGDGAANQGQVFEAMNIAAIHRIPVIFCCENNQFGMGTSKERAAYQPEMYRRGDYIPGLQVDGMDVLAVQEGTRWAKEWCLSGKGPIVLEFDSYRYVGHSMSDPDSQYRKKSDIQDVRKTRDCIHKMKDFMLEEGIMTDEEMKKLEKDVKKEVDQQLQPAEKQKPTPRSELFTDIYVGEQYEHRTTQGTVYAKP”, the “soluble on expression in E. coli” value is reported as “not soluble”. In the case of “MAHHHHHHMFSESDRRVRYTKGIGPQEASKEGGLLGDEGGKTWRMPKDKPQQNPASVDDNRIDDSIARGDGDNARDSGDGPGDNFLFTPTAARVDVHPLVLLSLVDHYARVNTKVTQKRRVAGLLLGRYKRLPDGTQLLDINNSFAVPFDEDPHNSDVWFVDTNYADEMFHMFRRVLPRVQVVGWYSAGPSFSVQPNDMLLHLLVADRFTANPVYCIVNTDPGNKGVPVLAYTTVQGREGVRSLEFRNIPTHLGAEEAEEIGIEHLLRDLTDSTITTLSTQIQERELSLAHLSCVLQSIEDYLQDVAEGLMPISEDVLSVLQELISLQPHIYHLKRSTEMIRHSNDQAIAMFIAAIGRCVGALYDVIANRRRINSEMVEVRARREQALKEKLEHEQHKAKEVVTTEKDENNNAK”, the “soluble on expression in E. coli” value is reported as “not soluble”. For “MAHHHHHHMGDFALISMNGDRVFISLDPVFTSQSLWLQAAEGLGEREGVVPIASTETLHNLVEYMAFQAKRMAGVAEGECKGGQTVTLPISCTTCSGSGGLGYDVHSLLPDHDIAFLDRFGGTGGVWEVEQQEKLMELMATADFVGHGRLSRLCAVYISCRLMSATESDILSWFSVCGDRCGGVASADPEADDGNRAGERVLRDAERLRILNQMRKYIEIED”, the “soluble on expression in E. coli” value was “not soluble”. In the case of “MAHHHHHHMGSLVMGRCRRGAEETFEFREEYALLDAPIANAEHIPLRLRPQERKIQRLMRGVILASSYTDKVDSASALKLKNRELLVVKELTNALTGLIVGLDMRKAASFMRDHEFTPYQHEIRAAIEMCRRYKMMNPDLLRTDYVKFLYMIQDAVQSDMAREALGFNVVKELVTVGRYCETHNMQDILQDTRLPHCITPVPVMKDRNMLNRCLRGKDAVVGKLVKQYASEHRMHEDNVEVVVRSLNDANCFSNDNVETSERLLELLKQYFTPISCTELTSLAIDEGADGSRLTHNHKMQYIFVLQSLSLWKNMCRKMYMLWSLAEEDMLNPNEKYELRMTGQGLQRVQKAPQLFKAIQQVLQETKEELGEWVGSERIHLGDDQVPNAFHFIDKYGQVSRIIIPILRTLGHIDQLERHADHAAYLREVWGGGEQAKRAILRDFFRHGFDGSGGDNMDDAGSCIDGRLTSAWNWCNNIRFKEFYPLFLFSGFSSFDGDMGL”, the “soluble on expression in E. coli” value is reported as “soluble”. In the case of “MAHHHHHHMGTLEAQTQGPGSMDFRIGQGYDVHQLVPGRPLIIGGVTIPYERGLLGHSDADVLLHAITDALFGAAALGDIGRHFSDTDPRFKGADSRALLRECASRVAQAGFAIRNVDSTIIAQAPKLAPHIDAMRANIAADLDLPLDRVNVKAKTNEKLGYLGRGEGIEAQAAALVVREAAA”, the “soluble on expression in E. coli” value is reported as “soluble”. In the case of “MAHHHHHHMGTLEAQTQGPGSMDKTLDKQVAIVTGASRGIGRAIALELARRGAMVIGTATTEAGAEGIGAAFKQAGLEGRGAVLNVNDATAVDALVESTLKEFGALNVLVNNAGITQDQLAMRMKDDEWDAVIDTNLKAVFRLSRAVLRPMMKARGGRIVNITSVVGSAGNPGQVNYAAAKAGVAGMTRALAREIGSRGITVNCVAPGFIDTDMTKGLPQEQQTALKTQIPLGRLGSPEDIAHAVAFLASPQAGYITGTTLHVNGGMFMS”, the “soluble on expression in E. coli” value is reported as “soluble”. With “MAHHHHHHMGTLEAQTQGPGSMGSLSTSISSITTNTTNLGNSTAAALGGGATYDPATGAISAPSYTTYNANGTTATNTSVGAAIDNINANGIKYFHANSTDPDSVATGTNSVAIGPNAVANVDYSVAIGSGATTSAAVPVASASVGGLTFGGFAGSAPIGVFSVGAPGAERQITNVAAGRISAASTDAVNGSQLYATNSN” the “soluble on expression in E. coli” value was “soluble”. With “MAHHHHHHMGTLEAQTQGPGSMKLAINGFGRIGRNVFKIAFERGIDIVAINDLTDPKTLAHLLKYDSTFGVYNKKVESRDGAIVVDGREIKIIAERDPKNLPWAKLGIDVVIESTGVFSSATSDKGGYLDHVNHAGAKKVILTVPAKDEIKTIVLGVNDHDINSDLKAVSNASCTTNCLAPLAKVLHESFGIEQGLMTTVHAYTNDQRILDLPHSDLRRARAAALSIIPTSTGAAKAVGLVLPELKGKLNGTSMRVPVPTGSIVDLTVQLKKKDVTKEEINSVLRKASETPELKGILGYTEDPIVSSDIKGNSHSSIVDGLETMVLENGFAKILSWYDNEFGYSTRVVDLAQKLVK” the “soluble on expression in E. coli” value was “soluble”. With “MAHHHHHHMGTYFSKDLQECLREEKRNLNRSIRELEREIFKMENEKKQIEKNIRIHAKKNDITLVRTLAKDLVKIKQNVIKYNKIKSHLLSMKIKLQSVKSSEQLNKSLCDINNIIKRVNKYIQVKNINNSIYEFQKQNNEVSIKEDMIDDLFDTLNYDIDMIQEEDEIVSKVLDELGIQLNSKLEQIPTIKQTENEQLDNVNISKIEDRINNLKKM” the “soluble on expression in E. coli” value was “soluble”. For “MAHHHHHHMHADGMHTEQDEFTLSQYVQRTPLARPLGLKIGARVMLRTNLAPGLVNGSLGTVVAFRKLEMDQLPRYIVGNAQREESILQYADYLKYEQGFEVPLVPVLDFNGRQEVIPPVTHFVGGLPNTHFYSMGIIALPLSLAYAFTVHKVQGLTLVGRVHLELSRMWPCEHLLYVAMSRVRNPEQLSVSSFHPSLVRAAADCLLFDDSLPPVTQVRIAPYMVAATWRRSSERRKKTVLRKRLEAYVKRRQQRLQSEASKGDIRAEIRLLEEKMLKQRVRASAAHRKRRSTPGKLGAVAGSPMV”, the “soluble on expression in E. coli” value was “not soluble”. In the case of “MAHHHHHHMHAYSGRMEHRKMVEVKDVPQNMYTYGKEGMSIPISIFKDQADPVIGPEWTYPGIFENKIVAQHWYMEELFDREKSNTFESPWQRQVLDNQVKRRLGKVAWRMSMLNIKTIDIFHKERGASKRPGAGDTKAPATPAGKK”, the “soluble on expression in E. coli” value is reported as “not soluble”. With “MAHHHHHHMISYSGVLYTSDLMAQLMEMVKYSTHASSRDSDAQRLLRYAVRGSSAAQDDLYRSLWLKVEMVADSRVLGRYIGAREPWSPIRVCFDERGLFKSYPPLVHASAKKTSAIEADATSGSGSTTMEEEQRQQSERQGMSTEITSHTSEGGEEMVEGVRGAVVAEASEASGVKDVALQEASHGEQRTVEALDLRWDDIHRLIERTRALTSPPTERHPQQEKMEIFTGIAVYLRTIATGRRYCSGEEEAGGEYPAESRERALFAVGYELDVWARLFELVQEVRHDMEKFITDNAAHHVEPEFECWEALLITLRCILDFCVVRTQEKGKEERAAVEELFEKTMKLRNELVEESRTRFGGRMRILWLQEA” the “soluble on expression in E. coli” value was “not soluble”. For “MAHHHHHHMKAFFIGKREYRRVLSLQETIFNAKIARQVSVRRGASKLPLLPDVVILVEHSTPVYTIGRRDTTHGLPPHCSIDVVKTRRGGGITYHGPGQLTMYPIANIQLLWKDCTAEKPRSPIEWFSWALEEAMIQTAAMYHIPTHRFKTGVWADQYKDIPAQKLGAVGLQLGSWVSMHGAGLNVASDLHFFDDIIMCELPDRRATSLSNEMQHRGVAESPPLVQATAPVLLQKFIESLHQQPSCAAPQLVDLSADADWHERVIDTAGISTP”, the “soluble on expression in E. coli” value was “not soluble”. In the case of “MAHHHHHHMKKSINILVCNNYLIHDFLSFFKNSDIDVGTKMDFIQKKASQVRIILLNGNEIMPGINVNYLEQIKEVFINAKIYVRYVVQEVGTVSIMELGQLEQDNIPYERKLAGYVLPNVHVKIDSKTNVMKIKSDNVFSQYYNNGKLTSQAFDQGGFFKTKYVASLAENALLKIEGIHNDMENIPDEYYLYFKQRRDKMEKHPPGYLKRVPLQGQIWGNFHANRRNWKRKF”, the “soluble on expression in E. coli” value is reported as “not soluble”. In the case of “MAHHHHHHMKLEFAHEAIVSRRRLSKFGYSLQTEKWTLHVNKKKRERKRKDSKKREEGEVIITKNANEREIKTVEESKHHTTCRLWFANVAACMYFLALATEELNTILQTEVFSKQRLIYWQMYHMPCSHISCMSARIPPLPPFRLYVTLKPKMRGSIFANISVGRMVGYEAAWSSTYSKRKR”, the “soluble on expression in E. coli” value is reported as “not soluble”. For “MAHHHHHHMKRRCDLLEVHSVAARPHKRGGTETTREHHFPLYSHPMFRAARHNANAVQDAVAEQSDRVDPGALDAALENMVTQLVEQRLSRHEAEGDTSPTLAKKNFIVTESELLALLAEATHATPLSPRPQQPPSAFPPSRPEAIAALAAAAAASSPPPQQGPFIPNQGYHTTHPPLQSNGDAERRAGPPPRTQASLFSGAASALGGDEPDELNVVSVGALQQAALRSLGHMDEQAAPRLPPLSESVASTTSGPTTKQRHPPTMPLYSLLPCLVASPGLTAASVLPAIVSSSLNPSPSSVTFREMDRCPGTGTGLVAQQSVDAQQLHQVPDAVFAAMDVLMDGNNCCMRRRKRLVATNGNKAESLSLNPRCLPGSGGGASGGSCFAFGCGSKGASLNRMYVPVAQNTLPAPPPPRTASEAKARRILEGQRRKQRLHDQQQHLVSNSFSLAGGGNTAPLSSSLVEFRSDTTSLPTEPFRWRHIDRSGSRTHSSAHPAPLPAASSVSRSAAVVVGTASTLPLTQEASLTFTLRDIAGEPVYMQAISAANRCWPASLI”, the “soluble on expression in E. coli” value was “not soluble”.
